# Results reported in the DeepSol protein solubility set.
# Experiment: soluble on expression in E. coli; label from the status in PepcDB or PDB records
row,Sequence,soluble on expression in E. coli
1,MSLNTLLMHCRPGFEGEVCAEIAEHAATLEIPGYAKSKPASAHVEFVCQDADGAERLMRRLRFADLIFPRQWARGPGFIELPESQRIEVLLAELASYPVCGSLWLEVLDTNAGKEVSTFCRKFEKPLRAALVKAGRLQEDPALPRLLLTFRSGREVFVGLAEPRNSALWPMGIPRLKFPREAPSRSTLKLEEAWHQFIPRSEWDKRLAPDMLAVDLGAAPGGWTWQLVNREMRVTAVDNGPMAENLMYSGLVDHQKVDGYQYRPRQRVDWMVCDIVEKPARTGALIETWIGEGLCREAVVNLKLPMKQRYAEVRKILQRLRESFDARGLKVAIGCKQLYHDREEVTCHLRRLEREGGSHHHHHH,soluble
2,MKLLILFSLFAIFFGVIALDSPIPEFYSTGRSTRVPSHRHRIPRLGKREVPNFQADNVPEAGGRVRRYVGPPLKLVILI,not soluble
3,GAMGSMKPYLFDLKLKDTEKLDWKKGLSSYLKKSYGSSQWRTFYDEKATSELDHLRNNANGELAPSSLSEQNLKYYSFLEHLYFRLGSKGSRLKMDFTWYDAEYSSAQKGLKYTQHTLAFEKSCTLFNIAVIFTQIARENINEDYKNSIANLTKAFSCFEYLSENFLNSPSVDLQSENTRFLANICHAEAQELFVLKLLNDQISSKQYTLISKLSRATCNLFQKCHDFMKEIDDDVAIYGEPKWKTTVTCKLHFYKSLSAYYHGLHLEEENRVGEAIAFLDFSMQQLISSLPFKTWLVEFIDFDGFKETLEKKQKELIKDNDFIYHESVPAVVQVDSIKALDAIKSPTWEKILEPYMQDVANKYDSLYRGIIPLDVYEKESIYSEEKATLLR,soluble
4,MTSRKAKESAHMSASDIISTFNDFFTNFPANKSFDMTYKVYLKDLADADEELTSSRRNSELNLTENKPITIASCGFVPQMMSSSTVKNLSLSSSATNFNSEKSEIGSKITMNPAKQVLKGRNTRKKRSMVDLSQINKIFGRDYNPPAPSSKSPPTIYVNLGVIYSSSSSHASDASSISSHTSVSSTFTEKQHEFGKLVPSGTDGSLELFVKVADCFD,not soluble
5,MGSDKIHHHHHHMRHENRVAWTEGMFLRVQHFQQSDRWTERLVRSVARSLTPYPWGILEIGLDRSALAIGQFALSGLRGMLPDGTPFDAPEDTDLPAALELDESVKNAVIYLALPARQPGKADMAQTGTSAVNSVRLVASPYEAPDANVETDFLAPIDVGRLNLKLLKTGDDLAGYELLGLARVVEVRSDKAVLLDPDFIPASLNCTASSRLHELMTELLGIVRHRAEAIAERIGDPTIRGTAEVGDYFLLQILNRADPLLKHALSNATRLHPIQFYEQCIQLAGELATFTMESKRATDFPAYRHDDLKATFGAVFEDLRTSLSSVLAQSAVAIELVERRHGVRVGTINDRSLLRDAGFVLAVRADMSAEDVRRTLPARIKVGPVERIAELVNVALPGIPVRPLPVLPRQLPYRAGTIYFELDTKTPLWKQLETSGAIALHLAGDFPGLELEMWALRE,not soluble
6,MGSDKIHHHHHHMPPPVRVNWPRMRTTRRQTVTTWVGNVPVGSSHPIVVQSMTNTDTANAEATALQVAQLARAGSEIVRVTVNTREAAAALPEIVARLHDLGLDVPLVGDFHYNGHLLLREYPETARLLAKYRINPGNVGAGQHHDANFATMIEVAKTYGKPVRIGVNWGSLDQQVLARLMDENARRGSPKSGTDVMIDAMVTSALESAAYAEGLGLPHDRIIISVKVSSAPELWQVYRQLAPLCDYPLHLGLTEAGMGMKGMVASSVALAPLLSEGIGDTIRVSLTPEPGAPRKLEVEVAQQILQSLGLRQFLPQVTSCPGCGRTTSTFFQELARKIQDYIRDAMPEWKAKYPGVEDMQVAVMGCIVNGPGESKHANIGISLPGTGEDPRAPVYQDGKLLTTLKGPRIAEDFQELLEKYVEERYGHKSAHTTVQE,not soluble
7,MSAAEEVDGLGVVRPHYGSVLDNERLTAEEMDERRRQNVAYEYLCHLEEAKRWMEACLGEDLPPTTELEEGLRNGVYLAKLGNFFSPKVVSLKKIYDREQTRYKATGLHFRHTDNVIQWLNAMDEIGLPKIFYPETTDIYDRKNMPRCIYCIHALSLYLFKLGLAPQIQDLYGKVDFTEEEINNMKIELEKYGIQMPAFSKIGGILANELSVDEAALHAAVIAINEAIDRRVAADTFTALKNPNAMLVNLEEGLAPTYQDVLYQAKQDKMTNAKNRTENSDRERDVYEELLTQAEIQGNVNKVNTSSALADISLALEQGCAVTLLKALQSLALGLRGLQTQNSDWYMKQLQSDLQQKRQSGQTDPLQKEEVQAGVDAANSAAQQYQRRKRPLAPGHRSVQGRAVVALCH,soluble
8,SLVVNRSWMRCWSITALRADHSVKICLIDETGAGDGALSVLAARWGLEHDEDNLMALVLTPEHLELRKRDEPKLGGIFVDFVGGAMAHRRKFGGGRGEAVAKAVGIKGDYLPDVVDATAGLGRDAFVLASVGCRVRMLERNPVVAALLDDGLARGYADAEIGGWLQERLQLIHASSLTALTDITPRPQVVYLDPMFPHKQKSALVKKEMRVFQSLVGPDLDADGLLEPARLLATKRVVVKRPDYAPPLANVATPNAVVTKGHRFDIYAGTPV,soluble
9,MSLGQIKGDLHMHSTWSDGAFSIREMAEACIKKGYQYMAITDHSQYLKVANGLTAERLKQQAKEIDALNAEFENFRILKGVEMDILPDGTLDYDDDVLAEMDIVIASIHSSFNQPEHVIMKRLETALTNKHVDIIAHPTGRLIGRRAGYEIDIDQLIELARKTNTALELNANPARLDLRTEHLMKANEQGVTLVINTDAHNIEMLDDMKTGVTAARKGWTETKNVLNARSLKDVEAFLKRNDEGHHHHHH,soluble
10,MAVIYYDKDADLNLIKDKKIAIIGYGSQGHAHALNLKDSGLNVVVGLREGSKSWKKAEEQGLTVKTIEEAAKEADIIMILIPDEHQPEIYKKYIEKHLTEGKMLMFAHGFNIHYHQIIPPKNVDVTMIAPKSPGHIVRREYVEGRGVPALVAVYQDYTGKAKDIALAYAKGIGVTRAGVIETTFKEETETDLFGEQAVLCGGVTALIKAGFETLVDAGYQPEIAYFECLNELKLIVDLIYEGGLSFMRYSVSNTAEYGDYISQEKIVTKEVRENMKQMLKDIQTGKFAKDWILENQAGRPYFYTMRKKESEHLIEKVGKELRKMMPWLKERNVDEE,soluble
11,MNIAVSKPPLTIRLCGPRGFCAGVDRAIQIVVLALKAYGAPVYVRHEIVHNRYVVEGLEAKGAIFVEELHEIPAEHREQPVVFSAHGVPKSVPEDAQARNLFYLDATCPLVSKVHKQAMRHQRLGRHVVLIGHAGHPEVIGTMGQLPEGTVSLVETVEDAGVYEPVDRENLGFVTQTTLSVDDTAGVIARLQERFPAIQAPAADSICYATTNRQDAVKQAAPGCDLFIVVGAPNSSNSKRLVEVALRAGAKHSVLVQRASEIDWNEIGDIRTVGLSAGASAPEVIVDEIIEAFKARFDTTLDLAVTVEETEHFLVNRELRSIELTTDDMAFVNGNASNALPPKATAGILEHHHHHH,not soluble
12,MRVISGSKKGRSLKAVAGTSTRPTTDKVKESIFNMIGPYFDGGRGLDLFAGSGGLGIEALSRGFEHCIFVDRDFKAIQTVKSNLKTLELTKHAQVYRNDAERALHAAAKRETGFRGIFLDPPYKEQKLKALLTLIDEYQMLEEDGFIVAEHDREVELPETVEILLEHHHHHH,soluble
13,MTSNHAILFPGQGAQRADMGAPIFDIYTKLVAEAEEIAEFSIRDFFRDCPADRFSNTLYVQPALYTVNALYYRRYIDESGALPLFLAGHSLGEFNALHAAGVFDFETGLRLVKKRALLMSESQGGGMAAVLGLNAEEVVKILEENNLFDLTIANINSDLQMVISGPIESIKQAEEIFYDNYAIKYVVLRVSGAFHSTMLNTAAIKFSEYIQGFSFLPPQIPVIANRTACPYTLSSVIKNLSEHINRPVMWRQSVIYMRTHGVERFTEMGETSLLLDMVKNIL,not soluble
14,MTIYPKLILDALATVRYPGTGKNLVEAGMVEDNIRIEGMKVSFSLIFEKPTDPFMKSVIKAAETAILTHVGKEVEIVGNISVKTVQAARPEVGKLLPHVKNIIGISSGKGGVGKSTVSANLAVALAKLGYKVGLLDADVFGPSMPKMFQVEDARPYAEKIDGRDMIIPVEKYGVKLLSIGFFVDPDQATLWRGGMASNALKQLIGDAAWGDLDYFLIDLPPGTSDIHLTVVQTLALTGAVVVSTPQAVALADARKGINMFTNDKVNVPILGLVENMAWFTPAELPENKYYLFGKEGAKKLAEEMNVPLLGQIPIVQSICEGGDKGTPVALDENTVTGRAFLALAASVVRQVDKRNVEMAPTKIVELHKLEHHHHHH,soluble
15,LQSKLSLPKIPNVIECFDISHLSGTATVGSMVQFRGGRPDKHNYRRFKIESVEGIDDFASIAEVVRRRYSRLLEDKHEMPDLIIIDGGKGQLSSAFQELRKLRVKVPIISIAKREEEIYVPGLKSPLPIKKDEKASLFVQEIRDEAHRFAINYNRLLRQKALIQK,not soluble
16,MGSDKIHHHHHHMGFWHSMSWKTEGIRVTAPVQWRQYDGMVSVLWEAESQAGASGYYLADDPRIMFFFNDVSSSVRISNQDNDLARNSRPMARAVYVPAGVPLWTGSRKTHSFSHLNLHLHKDRVLRFLAPSVGNSAAQTALRCPVELQNVAAIDALAKLLADEIKSPTKHAVYAESLIGSIIAGLLDIPTEREERAGGRLTQAQINKLVSHIDALGDYRMSVADMAAVVGLSESWFASVFKQTMGITPLQWQLAKRVELTKKLLGESDLPVASIAAQLGFADQAHLTKVFRQIVGETPAAWRRMRQFRQS,not soluble
17,MRVGIPTETKNNEFRVAITPAGVAELTRRGHEVLIQAGAGEGSAITDADFKAAGAQLVGTADQVWADADLLLKVKEPIAAEYGRLRHGQILFTFLHLAASRACTDALLDSGTTSIAYETVQTADGALPLLAPMSEVAGRLAAQVGAYHLMRTQGGRGVLMGGVPGVEPADVVVIGAGTAGYNAARIANGMGATVTVLDINIDKLRQLDAEFCGRIHTRYSSAYELEGAVKRADLVIGAVLVPGAKAPKLVSNSLVAHMKPGAVLVDIAIDQGGCFEGSRPTTYDHPTFAVHDTLFYCVANMPASVPKTSTYALTNATMPYVLELADHGWRAACRSNPALAKGLSTHEGALLSERVATDLGVPFTEPASVLAHHHHHH,soluble
18,MGSDKIHHHHHHDKDFGGLENIGWNEKPLQITTRILTTKSTNFIQEFKEGSMLGLQITSGTVDDLYNGISTYKNVSVKAYRVNGKIRWQQSPEVILDSNEATIYAYYPYQEDINFNARQIPVKLAPNALETDDYMYGTHAIGQKAVNSTSPLVLLSMNHALSLISFQLNLSKGKTGAFIISSVQVGNKPGGTTLVSEGTLDITTGDIIGSTARSTSASTVLSLTNPVTLINEKYCDPMRLMVIPPSGTIGTGDVETLFTINGETYKFDIPANTQWEKGKKYLYKLSFNGRSLQLRDVSITDWLPGNDEGLIGNIM,not soluble
19,MTSPMTSKDSKLTLAEKVWRDHVVSQGEGDQPDLIFIDLQLLHEVTSPQAFDGLRMAGRTLRHPELHLATEDHNVPTEGIHNGSLLEINDLVSRTQVETLRKNCEEFGVRLHAMGDKKQGIVHQVGPQLGATQPGMTIVCGDSHTSTHGAFGAMAFGIGTSEVEHVMATQTLSLKPFKTMAINVTGELQPGVTAKD,not soluble
20,QSILQDLFLLLIKFPKEEKTVEVFDTSPKIQLSNYEQYRQDALLAKAEGEQNKINTVLSYTEKTLAPYVVESELSNLCTQISHFLSSDWKEEECREIKISSQLKSIDLMHFGWNIAQPFGKSRKEISTFLKYTFAHALEDVEVSTLQRKLTNTEGKFLIPLQEKLSTESYSSS,not soluble
